# Data from PMC4335062, “Data-Driven Prediction and Design of bZIP Coiled-Coil Interactions” (PLoS Computational Biology, 2015).
# Where no end group is shown, it is not given here.
# Legend:
# JUN/FOS heterodimer = target: T1, JUN/FOS heterodimer (Homo sapiens, UniProt P05412); assay: Competition FRET assay; format: binding
# T1 construct: made in house
# Experimental: The amount of acceptor used varied for each curve, taking into account the Kd of the FRET complex in order to obtain a good lower baseline for fitting purposes. Samples were equilibrated for one hour before reading the plates; repeated reading of the plates over several hours gave no change in signal. For the competition experiments, the IC50 was determined in MATLAB by fitting the binding data to the equation signal=[…] , where a and b are the lower and upper baselines, c is the IC50 value, x is the inhibitor concentration, and the Hill coefficient H was set to 1. Ki values were calculated as in Fu et al..
# [1] = target: ATF5-d1 labeled at the C-terminus; assay: FRET or BRET; direct-binding FRET of the designed peptide with itself (row 'homodimer'; dimer to monomers); acceptor-labelled design titrated into donor-labelled design by note 1 of the tables; 4 °C
# CREB1 (human) = CREB1 (human) (UniProt P16220); assay: FRET or BRET; direct-binding FRET in 384-well plates; rhodamine-labelled design (acceptor) titrated 0 to 1 uM into 10 nM fluorescein-labelled bZIP (donor); 150 mM KCl, 50 mM potassium phosphate pH 7.4, 0.1% Tween-20, 0.1% BSA; 37 °C
# CREB3L1 (human) = CREB3L1 (human) (UniProt Q96BA8); assay: as above
# Sequence of CREB3L1 (human) (Q96BA8 whole entry): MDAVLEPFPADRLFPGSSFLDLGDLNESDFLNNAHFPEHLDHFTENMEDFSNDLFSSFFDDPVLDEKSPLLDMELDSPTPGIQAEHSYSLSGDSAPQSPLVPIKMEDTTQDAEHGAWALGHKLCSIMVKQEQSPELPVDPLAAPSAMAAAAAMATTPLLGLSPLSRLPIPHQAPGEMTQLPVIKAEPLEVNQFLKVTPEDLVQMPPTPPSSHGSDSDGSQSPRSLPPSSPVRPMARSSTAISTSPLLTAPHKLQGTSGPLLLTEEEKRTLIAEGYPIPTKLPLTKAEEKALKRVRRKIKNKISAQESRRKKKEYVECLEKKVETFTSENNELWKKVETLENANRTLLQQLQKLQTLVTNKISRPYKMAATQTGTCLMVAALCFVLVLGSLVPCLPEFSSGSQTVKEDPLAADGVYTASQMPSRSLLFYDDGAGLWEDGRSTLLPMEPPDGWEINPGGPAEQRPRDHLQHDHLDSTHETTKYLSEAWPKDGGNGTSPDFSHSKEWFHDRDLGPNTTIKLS
# Sequence of CREB1 (human) (P16220 whole entry): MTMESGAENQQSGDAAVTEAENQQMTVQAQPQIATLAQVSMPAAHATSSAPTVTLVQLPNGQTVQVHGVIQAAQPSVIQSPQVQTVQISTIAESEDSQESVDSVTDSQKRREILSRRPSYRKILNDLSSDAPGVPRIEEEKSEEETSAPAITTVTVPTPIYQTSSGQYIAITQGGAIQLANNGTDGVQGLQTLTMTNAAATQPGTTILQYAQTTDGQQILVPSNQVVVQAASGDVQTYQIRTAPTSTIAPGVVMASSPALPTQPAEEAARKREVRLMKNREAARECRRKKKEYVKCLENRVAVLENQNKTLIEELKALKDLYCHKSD
Kd [1],Kd (CREB1 (human)),Kd (CREB3L1 (human)),Molecule,IC50 (JUN/FOS heterodimer)
,,,SIAATLEKEEANLEKMNKKLAAEIESLLKEKDKLESVLNYHE [JUN-d1],245 nM
1000 nM,1000 nM,1000 nM,"ATF5-d1 labeled at the C-terminus (designed binder, not fully specified) GESKEYKKGSGSKRIAYLRQRIAELRNENHVLESRIQRMEKEKDALQQDRDHLEYELGC(Rhodamine Red C2‑maleimide)",
